Results reported in publication PMC9909426.

Target: Orange Carotenoid Protein variant OCP-W288_BTA (Synechocystis sp. PCC 6803 OCP with Trp288 replaced by 3-benzothienyl-L-alanine) (Synechocystis sp. PCC 6803) (UniProt P74102)
Assay: SEC; preparative SEC, Superdex 200 Increase 10/300, after IMAC and HIC; pink, earlier eluting fraction OCP-W288_BTA(P)

With “Orange Carotenoid Protein variant OCP-W288_BTA (Synechocystis sp. PCC 6803 OCP with Trp288 replaced by 3-benzothienyl-L-alanine) (from UniProt P74102 1-317) (natural protein)” the stoichiometry N was 2.
